Assays:
[1] = molecular target: H2-D^d MHC-I molecule on RMAS-D^d cells (mouse); experiment: flow cytometry on cells
[2] = molecular target: H2-D^d MHC-I molecule (Mus musculus, UniProt P01900); experiment: Peptide induction of surface H2-D^d expression on RMAS-D^d cells; format: cell-based; settings: fluorescence index, ANOVA, compared with s.p.VV10, Fig 4c
H2-D^d MHC-I molecule, sequence (P01900 whole entry, looked up): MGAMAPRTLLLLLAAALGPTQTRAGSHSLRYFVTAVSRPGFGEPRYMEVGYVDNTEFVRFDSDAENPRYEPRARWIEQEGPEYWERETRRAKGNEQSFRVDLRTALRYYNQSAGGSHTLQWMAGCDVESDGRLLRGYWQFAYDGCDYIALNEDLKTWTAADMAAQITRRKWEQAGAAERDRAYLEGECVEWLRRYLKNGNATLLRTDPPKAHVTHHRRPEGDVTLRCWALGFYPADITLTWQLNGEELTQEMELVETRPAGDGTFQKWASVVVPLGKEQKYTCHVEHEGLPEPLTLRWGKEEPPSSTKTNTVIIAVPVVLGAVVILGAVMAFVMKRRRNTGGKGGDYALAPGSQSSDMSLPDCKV

H2-D^d MHC-I molecule on RMAS-D^d cells (mouse), sequence (P01900 25-365): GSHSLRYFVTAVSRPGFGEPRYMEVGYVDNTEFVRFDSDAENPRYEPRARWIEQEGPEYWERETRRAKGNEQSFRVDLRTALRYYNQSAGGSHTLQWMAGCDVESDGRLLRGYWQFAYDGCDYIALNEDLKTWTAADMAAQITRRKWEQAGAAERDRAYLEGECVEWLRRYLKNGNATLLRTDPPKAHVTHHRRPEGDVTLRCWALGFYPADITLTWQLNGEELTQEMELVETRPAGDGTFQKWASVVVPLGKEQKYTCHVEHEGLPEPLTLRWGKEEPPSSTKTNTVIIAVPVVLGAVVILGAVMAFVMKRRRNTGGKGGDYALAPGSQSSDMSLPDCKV

Molecule	FI0.5 (peptide concentration giving a 50% increase in H2-D^d surface expression) [1] [µg/mL]	comparison of H2-D^d binding titration curves of the 9-mer peptides [2]
s.p.TT10 (…), minimal V3 epitope of HIV-1MN gp120, gp120 314-323 (peptide)	1	
IGPGRAFYT [s.p.T9]		do not differ from each other
IGPGRAFYV [s.p.V9]		do not differ from each other
IGPGRAFYVV [s.p.VV10 (…)]	1	
